Data: publication PMC10973816

B1: mGluR6 (metabotropic glutamate receptor 6): N290Q (protein)
parent chain: MGRLRVLLLWLAWWLSQAGIAHGAGSVRLAGGLTLGGLFPVHARGAAGRACGTLKKEQGVHRLEAMLYALDRINADPELLPGVRLGARLLDTCSRDTYALEQALSFVQALIRGRGDGEEASVRCPGGVPPLRAAPPERVVAVVGASASSVSIMVANVLRLFAIPQISYASTAPELSDSTRYDFFSRVVPPDSYQAQAMVDIVRALGWNYVSTLASEGNYGESGVEAFVQISREAGGVCIAQSIKIPREPKPGEFHKVIRRLMETPNARGIIIFANEDDIRRVLEATRQANLTGHFLWVGSDSWGSKISPILNLEEEAVGAITILPKRASIDGFDQYFMTRSLENNRRNIWFAEFWEENFNCKLTSSGGQSDDSTRKCTGEERIGQDSTYEQEGKVQFVIDAVYAIAHALHSMHQALCPGHTGLCPAMEPTDGRTLLHYIRAVRFNGSAGTPVMFNENGDAPGRYDIFQYQATNGSASSGGYQAVGQWAEALRLDMEALQWSGDPHEVPPSQCSLPCGPGERKKMVKGVPCCWHCEACDGYRFQVDEFTCEACPGHMRPTPNHTGCRPTPVVRLTWSSPWAALPLLLAVLGIMATTTIIATFMRHNDTPIVRASGRELSYVLLTGIFLIYAITFLMVAEPCAAVCASRRLLLGLGTTLSYSALLTKTNRIYRIFEQGKRSVTPPPFISPTSQLVITFGLTSLQVVGVIAWLGAQPPHSVIDYEEQRTVDPEQARGVLKCDMSDLSLIGCLGYSLLLMVTCTVYAIKARGVPETFNEAKPIGFTMYTTCIIWLAFVPIFFGTAQSAEKIYIQTTTLTVSLSLSASVSLGMLYVPKTYVILFHPEQNVQKRKRSLKKTSTMAAPPKSENSEDAK
B2: mGluR6 (metabotropic glutamate receptor 6): N473Q (protein)
parent chain: MGRLRVLLLWLAWWLSQAGIAHGAGSVRLAGGLTLGGLFPVHARGAAGRACGTLKKEQGVHRLEAMLYALDRINADPELLPGVRLGARLLDTCSRDTYALEQALSFVQALIRGRGDGEEASVRCPGGVPPLRAAPPERVVAVVGASASSVSIMVANVLRLFAIPQISYASTAPELSDSTRYDFFSRVVPPDSYQAQAMVDIVRALGWNYVSTLASEGNYGESGVEAFVQISREAGGVCIAQSIKIPREPKPGEFHKVIRRLMETPNARGIIIFANEDDIRRVLEATRQANLTGHFLWVGSDSWGSKISPILNLEEEAVGAITILPKRASIDGFDQYFMTRSLENNRRNIWFAEFWEENFNCKLTSSGGQSDDSTRKCTGEERIGQDSTYEQEGKVQFVIDAVYAIAHALHSMHQALCPGHTGLCPAMEPTDGRTLLHYIRAVRFNGSAGTPVMFNENGDAPGRYDIFQYQATNGSASSGGYQAVGQWAEALRLDMEALQWSGDPHEVPPSQCSLPCGPGERKKMVKGVPCCWHCEACDGYRFQVDEFTCEACPGHMRPTPNHTGCRPTPVVRLTWSSPWAALPLLLAVLGIMATTTIIATFMRHNDTPIVRASGRELSYVLLTGIFLIYAITFLMVAEPCAAVCASRRLLLGLGTTLSYSALLTKTNRIYRIFEQGKRSVTPPPFISPTSQLVITFGLTSLQVVGVIAWLGAQPPHSVIDYEEQRTVDPEQARGVLKCDMSDLSLIGCLGYSLLLMVTCTVYAIKARGVPETFNEAKPIGFTMYTTCIIWLAFVPIFFGTAQSAEKIYIQTTTLTVSLSLSASVSLGMLYVPKTYVILFHPEQNVQKRKRSLKKTSTMAAPPKSENSEDAK
B3: mGluR6 (metabotropic glutamate receptor 6): 3Q!561 (protein)
parent chain: MGRLRVLLLWLAWWLSQAGIAHGAGSVRLAGGLTLGGLFPVHARGAAGRACGTLKKEQGVHRLEAMLYALDRINADPELLPGVRLGARLLDTCSRDTYALEQALSFVQALIRGRGDGEEASVRCPGGVPPLRAAPPERVVAVVGASASSVSIMVANVLRLFAIPQISYASTAPELSDSTRYDFFSRVVPPDSYQAQAMVDIVRALGWNYVSTLASEGNYGESGVEAFVQISREAGGVCIAQSIKIPREPKPGEFHKVIRRLMETPNARGIIIFANEDDIRRVLEATRQANLTGHFLWVGSDSWGSKISPILNLEEEAVGAITILPKRASIDGFDQYFMTRSLENNRRNIWFAEFWEENFNCKLTSSGGQSDDSTRKCTGEERIGQDSTYEQEGKVQFVIDAVYAIAHALHSMHQALCPGHTGLCPAMEPTDGRTLLHYIRAVRFNGSAGTPVMFNENGDAPGRYDIFQYQATNGSASSGGYQAVGQWAEALRLDMEALQWSGDPHEVPPSQCSLPCGPGERKKMVKGVPCCWHCEACDGYRFQVDEFTCEACPGHMRPTPNHTGCRPTPVVRLTWSSPWAALPLLLAVLGIMATTTIIATFMRHNDTPIVRASGRELSYVLLTGIFLIYAITFLMVAEPCAAVCASRRLLLGLGTTLSYSALLTKTNRIYRIFEQGKRSVTPPPFISPTSQLVITFGLTSLQVVGVIAWLGAQPPHSVIDYEEQRTVDPEQARGVLKCDMSDLSLIGCLGYSLLLMVTCTVYAIKARGVPETFNEAKPIGFTMYTTCIIWLAFVPIFFGTAQSAEKIYIQTTTLTVSLSLSASVSLGMLYVPKTYVILFHPEQNVQKRKRSLKKTSTMAAPPKSENSEDAK
B4: mGluR6 (metabotropic glutamate receptor 6): triple mutant (only N473 left) (protein)
parent chain: MGRLRVLLLWLAWWLSQAGIAHGAGSVRLAGGLTLGGLFPVHARGAAGRACGTLKKEQGVHRLEAMLYALDRINADPELLPGVRLGARLLDTCSRDTYALEQALSFVQALIRGRGDGEEASVRCPGGVPPLRAAPPERVVAVVGASASSVSIMVANVLRLFAIPQISYASTAPELSDSTRYDFFSRVVPPDSYQAQAMVDIVRALGWNYVSTLASEGNYGESGVEAFVQISREAGGVCIAQSIKIPREPKPGEFHKVIRRLMETPNARGIIIFANEDDIRRVLEATRQANLTGHFLWVGSDSWGSKISPILNLEEEAVGAITILPKRASIDGFDQYFMTRSLENNRRNIWFAEFWEENFNCKLTSSGGQSDDSTRKCTGEERIGQDSTYEQEGKVQFVIDAVYAIAHALHSMHQALCPGHTGLCPAMEPTDGRTLLHYIRAVRFNGSAGTPVMFNENGDAPGRYDIFQYQATNGSASSGGYQAVGQWAEALRLDMEALQWSGDPHEVPPSQCSLPCGPGERKKMVKGVPCCWHCEACDGYRFQVDEFTCEACPGHMRPTPNHTGCRPTPVVRLTWSSPWAALPLLLAVLGIMATTTIIATFMRHNDTPIVRASGRELSYVLLTGIFLIYAITFLMVAEPCAAVCASRRLLLGLGTTLSYSALLTKTNRIYRIFEQGKRSVTPPPFISPTSQLVITFGLTSLQVVGVIAWLGAQPPHSVIDYEEQRTVDPEQARGVLKCDMSDLSLIGCLGYSLLLMVTCTVYAIKARGVPETFNEAKPIGFTMYTTCIIWLAFVPIFFGTAQSAEKIYIQTTTLTVSLSLSASVSLGMLYVPKTYVILFHPEQNVQKRKRSLKKTSTMAAPPKSENSEDAK
B5: mGluR6 (metabotropic glutamate receptor 6): triple mutant (only N290 left) (protein)
parent chain: MGRLRVLLLWLAWWLSQAGIAHGAGSVRLAGGLTLGGLFPVHARGAAGRACGTLKKEQGVHRLEAMLYALDRINADPELLPGVRLGARLLDTCSRDTYALEQALSFVQALIRGRGDGEEASVRCPGGVPPLRAAPPERVVAVVGASASSVSIMVANVLRLFAIPQISYASTAPELSDSTRYDFFSRVVPPDSYQAQAMVDIVRALGWNYVSTLASEGNYGESGVEAFVQISREAGGVCIAQSIKIPREPKPGEFHKVIRRLMETPNARGIIIFANEDDIRRVLEATRQANLTGHFLWVGSDSWGSKISPILNLEEEAVGAITILPKRASIDGFDQYFMTRSLENNRRNIWFAEFWEENFNCKLTSSGGQSDDSTRKCTGEERIGQDSTYEQEGKVQFVIDAVYAIAHALHSMHQALCPGHTGLCPAMEPTDGRTLLHYIRAVRFNGSAGTPVMFNENGDAPGRYDIFQYQATNGSASSGGYQAVGQWAEALRLDMEALQWSGDPHEVPPSQCSLPCGPGERKKMVKGVPCCWHCEACDGYRFQVDEFTCEACPGHMRPTPNHTGCRPTPVVRLTWSSPWAALPLLLAVLGIMATTTIIATFMRHNDTPIVRASGRELSYVLLTGIFLIYAITFLMVAEPCAAVCASRRLLLGLGTTLSYSALLTKTNRIYRIFEQGKRSVTPPPFISPTSQLVITFGLTSLQVVGVIAWLGAQPPHSVIDYEEQRTVDPEQARGVLKCDMSDLSLIGCLGYSLLLMVTCTVYAIKARGVPETFNEAKPIGFTMYTTCIIWLAFVPIFFGTAQSAEKIYIQTTTLTVSLSLSASVSLGMLYVPKTYVILFHPEQNVQKRKRSLKKTSTMAAPPKSENSEDAK
B6: mGluR6 (metabotropic glutamate receptor 6): 3Q!445 (protein)
parent chain: MGRLRVLLLWLAWWLSQAGIAHGAGSVRLAGGLTLGGLFPVHARGAAGRACGTLKKEQGVHRLEAMLYALDRINADPELLPGVRLGARLLDTCSRDTYALEQALSFVQALIRGRGDGEEASVRCPGGVPPLRAAPPERVVAVVGASASSVSIMVANVLRLFAIPQISYASTAPELSDSTRYDFFSRVVPPDSYQAQAMVDIVRALGWNYVSTLASEGNYGESGVEAFVQISREAGGVCIAQSIKIPREPKPGEFHKVIRRLMETPNARGIIIFANEDDIRRVLEATRQANLTGHFLWVGSDSWGSKISPILNLEEEAVGAITILPKRASIDGFDQYFMTRSLENNRRNIWFAEFWEENFNCKLTSSGGQSDDSTRKCTGEERIGQDSTYEQEGKVQFVIDAVYAIAHALHSMHQALCPGHTGLCPAMEPTDGRTLLHYIRAVRFNGSAGTPVMFNENGDAPGRYDIFQYQATNGSASSGGYQAVGQWAEALRLDMEALQWSGDPHEVPPSQCSLPCGPGERKKMVKGVPCCWHCEACDGYRFQVDEFTCEACPGHMRPTPNHTGCRPTPVVRLTWSSPWAALPLLLAVLGIMATTTIIATFMRHNDTPIVRASGRELSYVLLTGIFLIYAITFLMVAEPCAAVCASRRLLLGLGTTLSYSALLTKTNRIYRIFEQGKRSVTPPPFISPTSQLVITFGLTSLQVVGVIAWLGAQPPHSVIDYEEQRTVDPEQARGVLKCDMSDLSLIGCLGYSLLLMVTCTVYAIKARGVPETFNEAKPIGFTMYTTCIIWLAFVPIFFGTAQSAEKIYIQTTTLTVSLSLSASVSLGMLYVPKTYVILFHPEQNVQKRKRSLKKTSTMAAPPKSENSEDAK

Legend:
[1] = Non-permeabilised mAb-1438 immunolabelling, HEK, untagged; conditions: glycan lost; control: wild type
[2] = EGFP in TRPM1-positive OPL puncta, electroporated mouse retina; conditions: glycan lost; control: wild type mGluR6-EGFP
[3] = Permeabilised mAb-1438 immunolabelling, HEK, untagged; conditions: glycan lost; control: wild type
[4] = Total EGFP fluorescence, HEK; conditions: glycan lost; control: wild type mGluR6-EGFP

Row | Protein | localisation_or_trafficking [1] | localisation_or_trafficking [2] | expression_or_secretion [3] | expression_or_secretion [4]
1 | B1 | no change | no change |  | 
2 | B2 | decreases | no change |  | 
3 | B3 | decreases | abolishes | decreases | decreases, 3Q!561 had the highest expression among the triple mutants
4 | B4 | decreases |  | decreases | decreases
5 | B5 | decreases |  | decreases | decreases
6 | B6 | decreases | no change | decreases | decreases
